From paper PMC3489787, “Characterization of EssB, a protein required for secretion of ESAT-6 like proteins in Staphylococcus aureus” (BMC Microbiology, 2012)

Biological target: the molecule itself
Assay: SEC; about 100 ug of each purified protein, tags removed, on Superdex 75 10/300 GL in 50 mM Tris-HCl pH 8.0, 150 mM NaCl, 1 mM DTT at 4 °C, 0.5 ml/min; fractions on Coomassie-stained SDS-PAGE; calibrated with aldolase 158, conalbumin 75, ovalbumin 43, myoglobin 17 kDa (the results name a Sephacryl S-200 column)

B1: EssB^NM (domain or fragment)
chain: MVKNHNPKNEMQDMLTPLDAEEAAKTKLRLDMREIPKSSIKPEHFHLMYLLEQHSPYFIDAELTELRDSFQIHYDINDNHTPFDNIKSFTKNEKLRYLLNIKNLEEVNRTRYTFVLAPDELFFTRDGLPIAKTRGLQNVVDPLPVSEAEFLTRYKALVICAFNEKQSFDALVEGNLELHKGTPFETKVIEAATLDLLTAFLDEQYQKQEQDYSQNYAYVRKVGHTVFKWVAIGMTTLSVLLIAFLAFLYFSV
notes: EssB of Staphylococcus aureus, codons 1-252, N-terminal domain with the PTMD (229-251); also called his-essB^NM product; EssB(1-252); source: E. coli, pET15b, purified (Ni-NTA Agarose, thrombin cleavage); not shown: His6, N-terminal, cleaved
binding result: binds

B2: EssB^MC (domain or fragment)
chain: RKVGHTVFKWVAIGMTTLSVLLIAFLAFLYFSVMKHNERIEKGYQAFVKDDYTQVLNTYDDLDGKKLDKEALYIYAKSYIQTNKQGLEKDKKENLLNNVTPNSNKDYLLYWMELGQGHLDEAINIATYLDDNDITKLALINKLNEIKNNGDLSNDKRSEETKKYNDKLQDILDKEKQVKDEKAKSEEEKAKAKDEKLKQQEENEKKQKEQAQKDKEKRQEAERKK
notes: EssB of Staphylococcus aureus, codons 220-444, C-terminal domain with the PTMD (229-251); also called EssB^CM; his-essB^CM product; source: E. coli, pET15b, purified (Ni-NTA Agarose, thrombin cleavage); not shown: His6, N-terminal, cleaved
binding result: binds
